# Assay: yeast display, Sf9 membrane polyspecificity reagent, FACS + sequencing; frameworks hold sequencing errors
# Outline: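 Nanobodies came from a synthetic yeast display library in Saccharomyces cerevisiae BJ5465, induced with galactose for 36–48 hours and stained for 1 hour at 4 °C with 10% biotinylated, detergent-solubilized Sf9 membrane reagent. Cells were enriched on streptavidin microbeads and then FACS-sorted, with low and high (top ~1%) gates set on anti-HA fluorescence for expression and streptavidin fluorescence for reagent binding. Each polyreactivity label reflects the gate a clone came from. Genes were amplified by colony PCR, sequenced by MiSeq 2 × 250 and filtered by CDR length.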
row,Sequence,polyreactivity (PSR sort gate)
1,QVQLVESGGGLVQAGGSLRLSCAASGYTFYVYTMGWYRPARGKERELVAAISGSGTSTYYADSVKRRFTISRDNAKNTVYLQMNSLKPEDTAVYYCNAQDSLTTVPDPEYDYWGQGTQVTVSS,low polyreactivity
2,QLQLVESGGGLVQAGGSLRLSSAASGSIFIYYAMGWYRQAAGKERELVAAISYSDGDTYYADSVKGRFTISRDNAKNTVYLQMNSLKPEDTAVYYCAAEVPQYYDVGWEDYWGQGTQVTVSS,high polyreactivity
3,QVQLVESGGGLVQAGGSLRLSCAASGFIFYYYAMGWYRQAPGKERELVAAISRGGSTYYADSVKGRFTISRDNAKNTVYLQMNSLKPEDTAVYYCAAEAFPVYSYYYWGQGTQVTVSS,high polyreactivity
4,QVQLVESGGGLVQAGGRLRLSCAASGRTFAFYTMGWYRQAPGKEREFVAAISWSGGSTHYADSVKGRFTISRDNAKNTVYLQMNSLKPEDTAVYYCDAGPFYRFTDGRYKTLDYWGQGTQVTVSS,high polyreactivity
5,QVQLVESGGGLVQAGGSLRLSSAASGSTIRVYAMGWYRQAPGKERELVATISWGGGRTYYADSVKGRFTISLDNAKNTVYLQMNSLKQEDTSVYYCAADQRWTTDQPTAGDYWGQGTQVTVSS,low polyreactivity
6,QVQLVESGGGLVQAGGSRRLSSAASGIILDHNAMGWYRQAPGKERELVAAISSGTRTNYADSVKGRFTISRDNAKNTVYLQMNSLKPEDTAVYYCAATIYRRYPSKSSITSYWGQGTQVTVSS,high polyreactivity
7,QVQLVESGGGLVQAGGSLRLSCAASGRTFSYYAMGWYRQAPGKERELVASIRKSGASTYYADSVKGRFTISRDNAKNTVYLQMNSLKPEDTAVYYCNTAGWSFYSGRYDYWGQGTQVTVSS,high polyreactivity
8,QVQLVESGGGLVQAGGSLRLSCAASGNTFNENAMGWYRQSPGKERELVAAITSSGVSTFYADSVKGRFTISRDNAKNTVYLQMNSLKPEDTAVYYCAAEYYELDEYTGDYWVGSDYWGQGTQVTVSS,low polyreactivity
9,QVQIEESRVGLVQAGGSLRLSCAASGSIIYENMGWYRPAPGKERELVASISWSGTSTYADSVKGRFTMTRDNAKTTVYLLMNSLKPEDTAVYSCAAYPYPFYQSKYLGIGYGFWGQGTQVTVSS,high polyreactivity
10,QVQLQESGGGLVQAGGSLRLSCAASGYISLAQTIGWYRQAPGKEREFVASIALGSSTYYTDSVKGSFTISRDNAKTTVYLQMNSLKPEDTAVYYCAARVGASYAHDYWGQGTQVAVSS,low polyreactivity
11,QVQLVESGGGLVHAGGSLRLSCAASGFIYPGNAKGWYIQAPGKERELVAAISNSGSRTYYADSVKGRFTISRDHAMNTVYLQMNSLKPEDTAVYYCNADVDNRGWPYDYWGQGTQVNVSS,low polyreactivity
12,QVQLVESGGGLVQAGGSLRLRCAASGITFRNYAMGWYRQAPGKEMEFVATISRRAGSTYYADSVKGRFTISRDNAKNTVYLQMNRLKPEDTAVYYCAVRPSYVYFLGARYDYWGQGTQVTVSS,high polyreactivity
13,QVQLVESGGGLVQAGGSLRLSCAASGFTFFSNAMGWYRQAPGKERELVASISASGSGTYYADSVKGRFTISRDNAKNTVYLQMNSLKPEDTAVYYCAAQYRVNARSGVYRGYRYNYWGQGTQVTVSS,high polyreactivity
14,QVQLVDSGGGLVQAGGSLRLSCAASGSIILLNAMGWYRQAPGKEREMVARIRINGGSTYYADSVKGRFTISRDNAKNTVYLKMNSLKPEDTAVYYCAADDTGPYSNWYDYWGQGTQVTVSS,low polyreactivity
15,QVQLVESGGGLVQAGGSLRLSCAASGSIFADYAMGWYRQAPGKERELVAAISYNGDSTYYADSVKGRFTISRDNAKTTVYLQMNSLKPEDTAVYNCAADGAYGGYDYWGQGTQVTVSS,low polyreactivity
16,QVQLVESGGGLVQAGGSLRLSCAASGRTFSRNAMGWYRPAPGKERQLVAAIRGSGTGTYYADSVKGRFTISRDNAKNTVYLQMNSLKPEDTPVYYSNADFISTRPPKATDEDYWGQGTQVTVSS,high polyreactivity

row,Sequence,polyreactivity (PSR sort gate)
1,QVQLVESGGGLVQAGGSLRLSCAGSGRTFSTYAMGSDRQAPGKERELVAAITRRGGSTYYADSVKGRFTISRDNAKNTVYLQMNSLKPEDTAVYYCARENPGDSYYDYWGQGTQVTVSS,low polyreactivity
2,QVQLVESGGGLVQAGGSLRLSCAASGFTFRWNAMGWYRQAPGKERELVAAITNDDSTYYADSVKGRFTISRDNAKNTVYLQMNSLKPEDTAVYYCNADLTQYDAGFDYWGQGTQVTVSS,low polyreactivity
3,QVQLVESGGRLVQAGGRLRLSCAASGFIVYFNAMGWYIQAPGKERELVAAIRISGGSTYYADSVKGRFTISRDNAKNTVYLQMNSLKPEDTAVYYCATAPENYVSVGYDYWGQGTQVTVSS,low polyreactivity
4,QVQLVESGGGLVQAGGSLRLSCAATGSIFYQNAMGWYRQAPGKDRELVAAISSRGGRTYYADSVKGRFTISRDNAKNTVYLQMNSLKTEDTAVYYFNAARFPYSKDYDYWGQGNQVTVSS,high polyreactivity
5,QVQLVESGGGLVQAGGGLRLSCAASGSILPEYAMGWYRQAPGKERELVAAITTSGGSTYYADSVKGRFTISRDNAKNTVYLQMNSLKPEDTAVYYCAVEYLVYLDYTYDYWGQGTQVTVSS,low polyreactivity
6,QVQLVESGGGLVQAGGSLRLSCAASGFTFLYYAMGWYRHAPGKERELVAAITTGSSTNYADSVKGRFTISRDNAKNTVYLQMNSLKPEDTAVYYCAAEYYYRVWYGHYYEYDYWGQGTQVTVSS,high polyreactivity
7,QDQLVESGGGLVQAGGSLRLSCAASGRTLYLYAMGWYRQAPGKERELVAGISWSGTSTYYADSVKGRFTISRYNAKNTVYLQMNSLKPEDTAVYYCAADSYPAYLGFVGFDYWGQGTQVTVSS,low polyreactivity
8,QVQLVESGGGLVQAGGSLRLSCAASGRIFRDYAMGWYRQAPGKERELVAAITRSGDTTYYADSVKGRFTISRDNAKNTVYLQMNSLKPEDTAVYYCAARYVSRYYVYRGFEYWGQGTQVTVSS,high polyreactivity
9,QVQLVDSAGGLVQAGGSLRLSCAASGFIFRRNAMGWYRQAPGKERELVAGINRSGTRTYYADSVKGRFTISRDNAKNTVNLQMNSLKPEDTAVYYCAALVYRPTYGYIFDYWGQGTQVTVSS,high polyreactivity
10,QVQLVESGGGLVQAGGSLRLSCAASGRTFNVYAMGWYRQAPGKERELVAAISKSGGSTYYADSVKGRFTISRDNAKNTVYLQMTSLKPEDTAVYYCNRYRFVRQVRGGGLPYDYWGQGTQVTVSS,high polyreactivity
11,QDQLVESGGGLVQAGGSLRLSCAASGFIFGTYAMGWYRQAPGKEREFVAAINWGGGRTYYADSVKGRFTISRDNAKNTVYLQMNSLKPEDTAVYYCAADFGLYYPRYGYWGQGTQVTVSS,high polyreactivity
12,QVQLVESGGGLVQAGGSLRLSCAASGFIFATYGMGWYRQAPGKERELVATITSGGRTYYADSVKGRFTISRDNAKNTVYLQMNSLKPDDTAVYYCARASRRYWSMDYWGQGTQVSVSS,high polyreactivity
13,QVQLVESGGGLVQAGGSLRLSCAASGSIFAWYGMGRYRQAPGIERELVAAITTAGSTNYADSVKGRFTISRDNAKNTVYLHMNSLKPEDTAVYYCATATPYVSLKDAHDYGGQGTQVTVSS,low polyreactivity
14,QVQLVESGGGLVQAGGSLRLSCAASGFTFRANGMGWSRQAPGKERELVAVITSGGTTNYADSVKGRFTISRDNAKNTVYLQMNSLKPEDTAVYYCAVPYEPTSIPERRDYYRADDYWGQGTQVTVSS,low polyreactivity
15,QVHLVESGGGLVQAGGSLRLSCAASGYTFKRNAMGWYRQAPGKERELVAAINIRGSSTYYADSVKGRFTISRDNAKNTVYLQMNSLKPEDTAVYYCNAVPRYGYYWGQGTQVTVSS,high polyreactivity

# — the nanobody polyreactivity screen of Harvey et al. (2022)
